T1: denatured glycoprotein RNase B, P61823
T1 chain: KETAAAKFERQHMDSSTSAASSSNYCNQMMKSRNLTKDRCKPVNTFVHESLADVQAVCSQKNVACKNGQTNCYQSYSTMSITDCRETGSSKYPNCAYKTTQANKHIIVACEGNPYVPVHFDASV

T2: denatured glycoprotein RNase B (UniProt P61823 27-150, a single N-glycosylation site predominantly occupied by high mannose oligosaccharides; protein denatured)
T2 construct: Recognition by the PNGase F mutants and by Con A goes through the N-linked glycan on the protein; also called denatured RNase B; dRNAse B
T2 sequence (looked up): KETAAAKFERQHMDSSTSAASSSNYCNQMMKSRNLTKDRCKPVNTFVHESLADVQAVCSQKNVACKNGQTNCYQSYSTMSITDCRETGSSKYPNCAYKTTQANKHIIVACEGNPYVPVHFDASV

B1: PNGase F, Peptide-N4-(acetyl-β-D-glucosaminyl)-asparagine amidase, wild type (D60) (protein)
chain: APADNTVNIKTFDKVKNAFGDGLSQSAEGTFTFPADVTTVKTIKMFIKNECPNKTCDEWDRYANVYVKNKTTGEWYEIGRFITPYWVGTEKLPRGLEIDVTDFKSLLSGNTELKIYTETWLAKGREYSVDFDIVYGTPDYKYSAVVPVIQYNKSSIDGVPYGKAHTLGLKKNIQLPTNTEKAYLRTTISGWGHAKPYDAGSRGCAEWCFRTHTIAINNANTFQHQLGALGCSANPINNQSPGNWAPDRAGWCPGMAVPTRIDVLNNSLTGSTFSYEYKFQSWTNNGTNGDAFYAISSFVIAKSNTPISAPVVTN
B2: PNGase F D60A mutant (enzyme)
chain: APADNTVNIKTFDKVKNAFGDGLSQSAEGTFTFPADVTTVKTIKMFIKNECPNKTCDEWARYANVYVKNKTTGEWYEIGRFITPYWVGTEKLPRGLEIDVTDFKSLLSGNTELKIYTETWLAKGREYSVDFDIVYGTPDYKYSAVVPVIQYNKSSIDGVPYGKAHTLGLKKNIQLPTNTEKAYLRTTISGWGHAKPYDAGSRGCAEWCFRTHTIAINNANTFQHQLGALGCSANPINNQSPGNWAPDRAGWCPGMAVPTRIDVLNNSLTGSTFSYEYKFQSWTNNGTNGDAFYAISSFVIAKSNTPISAPVVTN
B3: PNGase F D60A/D57A mutant (enzyme)
chain: APADNTVNIKTFDKVKNAFGDGLSQSAEGTFTFPADVTTVKTIKMFIKNECPNKTCAEWARYANVYVKNKTTGEWYEIGRFITPYWVGTEKLPRGLEIDVTDFKSLLSGNTELKIYTETWLAKGREYSVDFDIVYGTPDYKYSAVVPVIQYNKSSIDGVPYGKAHTLGLKKNIQLPTNTEKAYLRTTISGWGHAKPYDAGSRGCAEWCFRTHTIAINNANTFQHQLGALGCSANPINNQSPGNWAPDRAGWCPGMAVPTRIDVLNNSLTGSTFSYEYKFQSWTNNGTNGDAFYAISSFVIAKSNTPISAPVVTN
B4: PNGase F D60A/E206A mutant (enzyme)
chain: APADNTVNIKTFDKVKNAFGDGLSQSAEGTFTFPADVTTVKTIKMFIKNECPNKTCDEWARYANVYVKNKTTGEWYEIGRFITPYWVGTEKLPRGLEIDVTDFKSLLSGNTELKIYTETWLAKGREYSVDFDIVYGTPDYKYSAVVPVIQYNKSSIDGVPYGKAHTLGLKKNIQLPTNTEKAYLRTTISGWGHAKPYDAGSRGCAAWCFRTHTIAINNANTFQHQLGALGCSANPINNQSPGNWAPDRAGWCPGMAVPTRIDVLNNSLTGSTFSYEYKFQSWTNNGTNGDAFYAISSFVIAKSNTPISAPVVTN
B5: PNGase F D60A/E206K mutant (enzyme)
chain: APADNTVNIKTFDKVKNAFGDGLSQSAEGTFTFPADVTTVKTIKMFIKNECPNKTCDEWARYANVYVKNKTTGEWYEIGRFITPYWVGTEKLPRGLEIDVTDFKSLLSGNTELKIYTETWLAKGREYSVDFDIVYGTPDYKYSAVVPVIQYNKSSIDGVPYGKAHTLGLKKNIQLPTNTEKAYLRTTISGWGHAKPYDAGSRGCAKWCFRTHTIAINNANTFQHQLGALGCSANPINNQSPGNWAPDRAGWCPGMAVPTRIDVLNNSLTGSTFSYEYKFQSWTNNGTNGDAFYAISSFVIAKSNTPISAPVVTN
B6: PNGase F D60A/E206Q mutant (enzyme)
chain: APADNTVNIKTFDKVKNAFGDGLSQSAEGTFTFPADVTTVKTIKMFIKNECPNKTCDEWARYANVYVKNKTTGEWYEIGRFITPYWVGTEKLPRGLEIDVTDFKSLLSGNTELKIYTETWLAKGREYSVDFDIVYGTPDYKYSAVVPVIQYNKSSIDGVPYGKAHTLGLKKNIQLPTNTEKAYLRTTISGWGHAKPYDAGSRGCAQWCFRTHTIAINNANTFQHQLGALGCSANPINNQSPGNWAPDRAGWCPGMAVPTRIDVLNNSLTGSTFSYEYKFQSWTNNGTNGDAFYAISSFVIAKSNTPISAPVVTN
B7: PNGase F D60A/E206R mutant (enzyme)
chain: APADNTVNIKTFDKVKNAFGDGLSQSAEGTFTFPADVTTVKTIKMFIKNECPNKTCDEWARYANVYVKNKTTGEWYEIGRFITPYWVGTEKLPRGLEIDVTDFKSLLSGNTELKIYTETWLAKGREYSVDFDIVYGTPDYKYSAVVPVIQYNKSSIDGVPYGKAHTLGLKKNIQLPTNTEKAYLRTTISGWGHAKPYDAGSRGCARWCFRTHTIAINNANTFQHQLGALGCSANPINNQSPGNWAPDRAGWCPGMAVPTRIDVLNNSLTGSTFSYEYKFQSWTNNGTNGDAFYAISSFVIAKSNTPISAPVVTN
B8: PNGase F D60A/R125A mutant (enzyme)
chain: APADNTVNIKTFDKVKNAFGDGLSQSAEGTFTFPADVTTVKTIKMFIKNECPNKTCDEWARYANVYVKNKTTGEWYEIGRFITPYWVGTEKLPRGLEIDVTDFKSLLSGNTELKIYTETWLAKGAEYSVDFDIVYGTPDYKYSAVVPVIQYNKSSIDGVPYGKAHTLGLKKNIQLPTNTEKAYLRTTISGWGHAKPYDAGSRGCAEWCFRTHTIAINNANTFQHQLGALGCSANPINNQSPGNWAPDRAGWCPGMAVPTRIDVLNNSLTGSTFSYEYKFQSWTNNGTNGDAFYAISSFVIAKSNTPISAPVVTN
B9: PNGase F D60N mutant (enzyme)
chain: APADNTVNIKTFDKVKNAFGDGLSQSAEGTFTFPADVTTVKTIKMFIKNECPNKTCDEWNRYANVYVKNKTTGEWYEIGRFITPYWVGTEKLPRGLEIDVTDFKSLLSGNTELKIYTETWLAKGREYSVDFDIVYGTPDYKYSAVVPVIQYNKSSIDGVPYGKAHTLGLKKNIQLPTNTEKAYLRTTISGWGHAKPYDAGSRGCAEWCFRTHTIAINNANTFQHQLGALGCSANPINNQSPGNWAPDRAGWCPGMAVPTRIDVLNNSLTGSTFSYEYKFQSWTNNGTNGDAFYAISSFVIAKSNTPISAPVVTN
B10: PNGase F E206A mutant (enzyme)
chain: APADNTVNIKTFDKVKNAFGDGLSQSAEGTFTFPADVTTVKTIKMFIKNECPNKTCDEWDRYANVYVKNKTTGEWYEIGRFITPYWVGTEKLPRGLEIDVTDFKSLLSGNTELKIYTETWLAKGREYSVDFDIVYGTPDYKYSAVVPVIQYNKSSIDGVPYGKAHTLGLKKNIQLPTNTEKAYLRTTISGWGHAKPYDAGSRGCAAWCFRTHTIAINNANTFQHQLGALGCSANPINNQSPGNWAPDRAGWCPGMAVPTRIDVLNNSLTGSTFSYEYKFQSWTNNGTNGDAFYAISSFVIAKSNTPISAPVVTN

Target: T1, denatured glycoprotein RNase B, P61823
Experiment: enzyme Km of the wild type, used as reference for the SPR Kd values

B1 was tested, and the Km (printed in the Kd column, footnote a) was 6.4 mM.

target: T2, denatured glycoprotein RNase B; experiment: SPR Kd against wild type Km

First: B2
Second: B3
The “Relative Enhancement (relative to wild type)” value (“Relative Enhancement” for short) of the first is lower: 580 fold for the first, 910 fold for the second.

Going from B4 to B5, the “Relative Enhancement” value rises from 320 fold to 360 fold.

Compared with B6, B7 is lower in “Relative Enhancement” value: 360 fold for the first, 240 fold for the second.

First: B8
Second: B9
The “Relative Enhancement” value of the first is higher: 360 fold for the first, 290 fold for the second.

With B10 the “Relative Enhancement” value was 580 fold.

target: denatured glycoprotein RNase B (UniProt P61823); experiment: reference value of Table 7

With “PNGase F, Peptide-N4-(acetyl-β-D-glucosaminyl)-asparagine amidase, wild type (D60) (from UniProt P21163 41-354) (enzyme)” the Relative Enhancement (relative to wild type) was 1 fold.

— US20120040474A1 (published 2012)
